Values of other authors, collected in article PMC10875074.

Biological target: CD155 (poliovirus receptor, Necl-5) (Homo sapiens) (UniProt P15151)

- Kd: 2 nM
Substance: TIGIT (from UniProt Q495A1)
